Test results: patent publication US20250027068A1
Where a chain is given by its changes, count along the chain named.

B1: VRT-5 (Fc fusion)
chain: VTSVWTKGVTPPANFTQGEDVFHAPYKANQGWYDITKTFNGKDDLLCGAATAGNMLHWWFDQNKDQIEAYLKEHPEKQKINFNGEQMFDVKEAIDTKDDQTNSKLFEYFKEKAFPYLSTKHLGVFPDHVLDMFINGYRLSLTNHGPTPVKEGSKDPRGGIFDAVFTRGDQSKLLTSRHDFKEKTLKEISDLIKQELTEGKALALSHTYANVRINHVINLWGADFDSNGNLEAIYVTDSDSNASIGMKKYFVGVNSAGKVAISAKEIEDDNIGAQVLGLFTLSTGQDIWNQTNDKTHTCPPCPAPEAAGAPSVFLFPPKPKDTLMISRTPEVTCVVVDVSHEDPEVKFNWYVDGVEVHNAKTKPREEQQNSTYRVVSVLTVLHQDWLNGKEYKCKVSNKALKAPIEKTISKAKGQPREPQVYTLPPSRDELTKNQVSLTCLVKGFYPSDIAVEWESNGQPENNYKTTPPVLDSDGSFFLYSKLTVDKSRWQQGNVFSCSVMHEALHNHYTQKSLSLSPG
B2: VRT-2 (Fc fusion)
chain: VTSVWTKGVTPPAKFTQGEDVFHAPYVANQGWYDITKTFNGKDDLLCGAATAGNMLHWWFDQNKEKIEAYLKKHPDKQKIMFGDQELLDVRKVINTKGDQTNSELFNYFRDKAFPGLSARRIGVMPDLVLDMFINGYYLNVYKTQTTDVNRTYQEKDRRGGIFDAVFTRGDQSKLLTSRHDFKEKNLKEISDLIKKELTEGKALGLSHTYANVRINHVINLWGADFDSNGNLKAIYVTDSDSNASIGMKKYFVGVNSAGKVAISAKEIKEDNIGAQVLGLFTLSTGQDSWNQTNDKTHTCPPCPAPEAAGAPSVFLFPPKPKDTLMISRTPEVTCVVVDVSHEDPEVKFNWYVDGVEVHNAKTKPREEQQNSTYRVVSVLTVLHQDWLNGKEYKCKVSNKALKAPIEKTISKAKGQPREPQVYTLPPSRDELTKNQVSLTCLVKGFYPSDIAVEWESNGQPENNYKTTPPVLDSDGSFFLYSKLTVDKSRWQQGNVFSCSVMHEALHNHYTQKSLSLSPG
B3: VRT-8 (Fc fusion)
chain: VTSVWTKGVTPPADFTQGEDVFHAPYVANQGWYDITKTFNGKDDLLCGAATAGNMLHWWFDQNKEYIEAYLKKHPEKQKIMFGDQELLDVRKAINTKGSQKNSELFNYFRDKAFPNLSARRLGVMPDLVLDMFINGYYLNVTKTQTTDVNRTYQEKDKRGGIFDAVFTRGDQSKLLTSRHDFKEKGLKEISDLIKQELTEGKALGLSHTYANVRINHVINLWGADFDSDGNLKAIYVTDSDSNASIGMKKYFVGVNSAGKVAISAKEIKEDNIGAQVLGLFTLSTGQDIWNQTNDKTHTCPPCPAPEAAGAPSVFLFPPKPKDTLMISRTPEVTCVVVDVSHEDPEVKFNWYVDGVEVHNAKTKPREEQQNSTYRVVSVLTVLHQDWLNGKEYKCKVSNKALKAPIEKTISKAKGQPREPQVYTLPPSRDELTKNQVSLTCLVKGFYPSDIAVEWESNGQPENNYKTTPPVLDSDGSFFLYSKLTVDKSRWQQGNVFSCSVMHEALHNHYTQKSLSLSPG
B4: VRT-7 (Fc fusion)
chain: VTSVWTKGVTPPTNFTYGEDVLHAPYVANQGWYDITKTFNGKDDLLCGAATAGNMLHWWFDQNKEQIENYLKKHPEKQKINFNGEQMFDVKEAIDTKDSQLDSKLFEYFKEKAFPYLSTKHLGVFPDHVIDMFINGYRLSLTNHGPTPVKRGSKDPRGGIFDAVFTRGDQSKLLTNRHDFKEKTLKEISDLIKQELTEGKALGISHTYANVRINHVINLWGADFDAEGNLEAIYVTDSDSNASIGMKKYFVGVNSNGKVAISAKEIEEDNIGAQVLGLFTLSTGQDIWNQTNDKTHTCPPCPAPEAAGAPSVFLFPPKPKDTLMISRTPEVTCVVVDVSHEDPEVKFNWYVDGVEVHNAKTKPREEQQNSTYRVVSVLTVLHQDWLNGKEYKCKVSNKALKAPIEKTISKAKGQPREPQVYTLPPSRDELTKNQVSLTCLVKGFYPSDIAVEWESNGQPENNYKTTPPVLDSDGSFFLYSKLTVDKSRWQQGNVFSCSVMHEALHNHYTQKSLSLSPG
B5: VRT-1 (Fc fusion)
chain: VTSVWTKGVTPPANFTQGEDVFHAPYVANQGWYDITKTFNGKDDLLCGAATAGNMLHWWFDQNKDQIKRYLEEHPEKQKINFNGEQMFDVKEAIDTKNHQLDSKLFEYFKEKAFPYLSTKHLGVFPDHVIDMFINGYRLSLTNHGPTPVKEGSKDPRGGIFDAVFTRGDQSKLLTSRHDFKEKNLKEISDLIKKELTEGKALGLSHTYANVRINHVINLWGADFDSNGNLKAIYVTDSDSNASIGMKKYFVGVNSAGKVAISAKEIKEDNIGAQVLGLFTLSTGQDSWNQTNDKTHTCPPCPAPEAAGAPSVFLFPPKPKDTLMISRTPEVTCVVVDVSHEDPEVKFNWYVDGVEVHNAKTKPREEQQNSTYRVVSVLTVLHQDWLNGKEYKCKVSNKALKAPIEKTISKAKGQPREPQVYTLPPSRDELTKNQVSLTCLVKGFYPSDIAVEWESNGQPENNYKTTPPVLDSDGSFFLYSKLTVDKSRWQQGNVFSCSVMHEALHNHYTQKSLSLSPG
B6: VRT-6 (Fc fusion)
chain: B1 chain with K27V, A69R, D99S, N102D, A203G, N227E, E231K, E267K, D268E
B7: VRT-3 (Fc fusion)
chain: QITSVWTKGVTPLTPEQFRYNNEDVIHAPYLAHQGWYDITKAFDGKDNLLCGAATAGNMLHWWFDQNKTEIEAYLSKHPEKQKIIFNNQELFDLKAAIDTKDSQTNSQLFNYFRDKAFPNLSARQLGVMPDLVLDMFINGYYLNVFKTQSTDVNRPYQDKDKRGGIFDAVFTRGDQTTLLTARHDLKNKGLNDISTIIKQELTEGRALALSHTYANVSISHVINLWGADFNAEGNLEAIYVTDSDANASIGMKKYFVGINAHGHVAISAKKIEGENIGAQVLGLFTLSSGKDIWQKLSDKTHTCPPCPAPEAAGAPSVFLFPPKPKDTLMISRTPEVTCVVVDVSHEDPEVKFNWYVDGVEVHNAKTKPREEQQNSTYRVVSVLTVLHQDWLNGKEYKCKVSNKALKAPIEKTISKAKGQPREPQVYTLPPSRDELTKNQVSLTCLVKGFYPSDIAVEWESNGQPENNYKTTPPVLDSDGSFFLYSKLTVDKSRWQQGNVFSCSVMHEALHNHYTQKSLSLSPG
B8: VRT-11 (Fc fusion)
chain: B7 chain with L13P, H33N, A42T, D44N, G190T, I197L, R206K, I259V, H264K
B9: VRT-12 (Fc fusion)
chain: B7 chain with H33N, A42T, D44N, S76K, D193E, I197L, R206K, A246S, I259V, H264K
B10: VRT-4 (Fc fusion)
chain: SQTEDSESLQRLRDIEDFQAEKKMQNVVYTKWLDGVDVKDHDFRKIVDGNIAYYATPLLNGRGFYDINKDFNRDSDKCAAAVAANMFHYWLDINRDNVDRFLRQNPEKHGIIELPDGQLKLSDFLNTYESDHGYRDKSKLFDFISNNFNGPVWTDKLLDNYINGYAYNYKYGRTIEDPTKNTSKINFFKEVFNEKILTNNHSIRNQNEFSVLLSEALYTGKAIGLSYGPAGLRHSLGHIISVWGADLDADGNVVAIYVTDSDDKKLTIGDERVGLKRYKISTDDENRLRLTAYEETHNTGGQIRGLWTLDTGKYAWADYFDKTEQTGTDQAEQDKTHTCPPCPAPEAAGAPSVFLFPPKPKDTLMISRTPEVTCVVVDVSHEDPEVKFNWYVDGVEVHNAKTKPREEQQNSTYRVVSVLTVLHQDWLNGKEYKCKVSNKALKAPIEKTISKAKGQPREPQVYTLPPSRDELTKNQVSLTCLVKGFYPSDIAVEWESNGQPENNYKTTPPVLDSDGSFFLYSKLTVDKSRWQQGNVFSCSVMHEALHNHYTQKSLSLSPG
B11: VRT-10 (Fc fusion)
chain: TITSVWTKGVTPPTPEDFRYNNEDVLHAPYVANQGWYDITKTFDGKDNLLCGAATAGNMLHWWFDQNKEEIERYLKKHPEKQKIIFNNQELFDVKAAIDTKDSQTNSKLFNYFRDKAFPNLSARQLGVMPDLVLDMFINGYYLNLGKTQSTDVNRPYQDKDKRGGIFDAVFTRGDQTTLLTARHDLKNKGLNEISDLIKQELTEGKALALSHTYANVRINHVINLWGADFDAEGNLIAIYVTDSDANASIGMKKYFVGVNANGKVAISAKKIEGDNIGAQVLGLFTLSTGQDIWQKLSDKTHTCPPCPAPEAAGAPSVFLFPPKPKDTLMISRTPEVTCVVVDVSHEDPEVKFNWYVDGVEVHNAKTKPREEQQNSTYRVVSVLTVLHQDWLNGKEYKCKVSNKALKAPIEKTISKAKGQPREPQVYTLPPSRDELTKNQVSLTCLVKGFYPSDIAVEWESNGQPENNYKTTPPVLDSDGSFFLYSKLTVDKSRWQQGNVFSCSVMHEALHNHYTQKSLSLSPG

The binders below were run against pooled human IgG (human) (assay: cell-based or functional assay).

Binder	Enzyme Activity Endpoint Assay: Fab′2	Enzyme Activity Endpoint Assay: Fc	Enzyme Activity Endpoint Assay: IgG	Enzyme Activity Endpoint Assay: scIgG
B1	137 ng/µL	294 ng/µL	89 ng/µL	151 ng/µL
B2	97 ng/µL	238 ng/µL	247 ng/µL	100 ng/µL
B3	0 ng/µL	126 ng/µL	652 ng/µL	125 ng/µL
B4	61 ng/µL	258 ng/µL	178 ng/µL	249 ng/µL
B5	175 ng/µL	334 ng/µL	197 ng/µL	137 ng/µL
B6	132 ng/µL	304 ng/µL	78 ng/µL	172 ng/µL
B7	0 ng/µL	99 ng/µL	808 ng/µL	50 ng/µL
B8	0 ng/µL	90 ng/µL	829 ng/µL	38 ng/µL
B9	0 ng/µL	101 ng/µL	747 ng/µL	64 ng/µL
B10	0 ng/µL	29 ng/µL	990 ng/µL	24 ng/µL
B11	56 ng/µL	266 ng/µL	71 ng/µL	169 ng/µL
